# Assay results as given in the Human Domainome abundance scans (Beltran et al. 2025).
# ± gives the uncertainty stated by the source.
# B1: Chromodomain-helicase-DNA-binding protein 5, residues 338 to 390; numbered along this chain, Q8TDI0 (parent)
# chain: YETDHQDYCEVCQQGGEIILCDTCPRAYHLVCLDPELEKAPEGKWSCPHCEKE
# Variants of: B1
# Assay: abundance fitness (aPCA) (normalised: wild type 0, dead -1); higher = more abundant; growth selection in yeast, the domain comes from the species named
# Conditions: Homo sapiens
row,Variant,abundance fitness
1,P41R,-0.075 ± 0.098
2,P41F,-0.164 ± 0.26
3,P41L,-0.135 ± 0.1
4,P41A,0.058 ± 0.11
5,P41M,-0.124 ± 0.17
6,P41E,-0.114 ± 0.13
7,P41C,-0.379 ± 0.17
8,P41N,0.18 ± 0.19
9,P41Y,-0.443 ± 0.27
10,P41T,-0.17 ± 0.2
11,P41G,-0.106 ± 0.12
12,P41H,0.056 ± 0.17
13,P41V,-0.096 ± 0.12
14,P41K,-0.118 ± 0.17
15,P41W,-0.323 ± 0.15
16,P41Q,-0.568 ± 0.2
17,P41I,0.117 ± 0.21
18,P48H,-0.484 ± 0.23
19,P48E,-0.017 ± 0.12
20,P48Q,-0.087 ± 0.17
21,P48W,0.01 ± 0.14
22,P48F,0.124 ± 0.23
23,P48S,0.016 ± 0.12
24,P48T,-0.006 ± 0.15

row,Variant,abundance fitness
1,P48V,-0.04 ± 0.1
2,P48N,0.014 ± 0.24
3,P48C,0.016 ± 0.16
4,P48Y,-0.022 ± 0.28
5,P48M,0.107 ± 0.14
6,P48I,0.025 ± 0.19
7,L37Y,-0.237 ± 0.26
8,L37F,-0.147 ± 0.35
9,L37M,-0.152 ± 0.16
10,L37N,-0.102 ± 0.31
11,L37K,-0.04 ± 0.2
12,L37C,-0.094 ± 0.16
13,L37S,0.211 ± 0.11
14,L37W,-0.496 ± 0.13
15,L37T,0.101 ± 0.13
16,L37V,-0.026 ± 0.11
17,L37R,0.115 ± 0.095
18,L37G,0.032 ± 0.11
19,L37H,-0.069 ± 0.33
20,L37P,-0.085 ± 0.15
21,L37E,-0.566 ± 0.18
22,A40M,0.017 ± 0.14
23,A40E,-0.274 ± 0.17
24,A40Q,-0.273 ± 0.24

row,Variant,abundance fitness
1,A40Y,-0.23 ± 0.18
2,A40V,-0.033 ± 0.1
3,A40F,0.3 ± 0.16
4,A40N,0.187 ± 0.16
5,A40P,-0.023 ± 0.15
6,A40T,-0.088 ± 0.13
7,A40W,-0.404 ± 0.16
8,A40G,-0.168 ± 0.11
9,A40K,-0.218 ± 0.19
10,A40C,-0.396 ± 0.16
11,A40I,0.131 ± 0.16
12,A40R,-0.072 ± 0.11
13,A40H,-0.094 ± 0.22
14,A40S,0.024 ± 0.11
15,A40D,-0.243 ± 0.19
16,P35W,-0.428 ± 0.19
17,P35F,-0.915 ± 0.33
18,P35N,-0.211 ± 0.23
19,P35V,0.03 ± 0.096
20,P35C,-0.313 ± 0.21
21,P35Y,0.027 ± 0.24
22,P35G,0.181 ± 0.11
23,P35L,-0.078 ± 0.097
24,P35K,0.082 ± 0.15

row,Variant,abundance fitness
1,P35H,-0.524 ± 0.34
2,P35R,-0.096 ± 0.12
3,P35E,0.001 ± 0.12
4,P35Q,-0.058 ± 0.15
5,P35S,-0.057 ± 0.11
6,P35I,-0.209 ± 0.21
7,P35T,0.069 ± 0.13
8,P35M,0.121 ± 0.13
9,K44F,-0.259 ± 0.17
10,K44H,-0.341 ± 0.22
11,K44R,0.14 ± 0.099
12,K44I,-0.32 ± 0.21
13,K44A,-0.255 ± 0.15
14,K44Y,-0.599 ± 0.21
15,K44E,0.031 ± 0.12
16,K44G,0.065 ± 0.093
17,K44W,-0.236 ± 0.13
18,K44C,-0.051 ± 0.13
19,K44Q,-0.053 ± 0.13
20,K44M,0.116 ± 0.15
21,K44N,-0.237 ± 0.2
22,K44S,-0.125 ± 0.12
23,K44P,-0.255 ± 0.14
24,K44L,-0.009 ± 0.12

row,Variant,abundance fitness
1,K44T,0 ± 0.13
2,K44D,0.216 ± 0.16
3,E53C,0.222 ± 0.23
4,E53G,0.086 ± 0.13
5,E53A,-0.246 ± 0.16
6,E53K,-0.173 ± 0.4
7,E53D,0.016 ± 0.3
8,G43R,-0.11 ± 0.098
9,G43S,0.087 ± 0.1
10,G43D,0.044 ± 0.14
11,G43I,-0.169 ± 0.16
12,G43M,-0.088 ± 0.17
13,G43C,-0.117 ± 0.12
14,G43L,-0.096 ± 0.11
15,G43P,0.032 ± 0.12
16,G43Y,-0.323 ± 0.18
17,G43H,0.166 ± 0.16
18,G43A,-0.192 ± 0.13
19,G43E,0.029 ± 0.15
20,G43T,0.235 ± 0.13
21,G43Q,-0.074 ± 0.15
22,G43F,-0.138 ± 0.14
23,G43K,0.057 ± 0.17
24,G43W,-0.223 ± 0.14

row,Variant,abundance fitness
1,G43V,0.029 ± 0.11
2,G43N,0.23 ± 0.15
3,C50H,0.231 ± 0.18
4,C50A,-0.503 ± 0.13
5,C50S,-0.416 ± 0.12
6,C50P,-0.499 ± 0.18
7,C50N,-0.498 ± 0.2
8,C50M,-1.01 ± 0.34
9,C50Q,-0.365 ± 0.17
10,C50D,-0.626 ± 0.24
11,C50Y,-0.507 ± 0.17
12,C50L,-0.575 ± 0.13
13,C50G,-0.55 ± 0.1
14,C50W,-0.718 ± 0.18
15,C50F,-0.654 ± 0.23
16,C50E,0.025 ± 0.14
17,C50T,-0.409 ± 0.19
18,C50R,-0.71 ± 0.12
19,C50K,-0.405 ± 0.19
20,E42Q,-0.224 ± 0.17
21,E42D,-0.013 ± 0.18
22,E42H,-0.068 ± 0.23
23,E42W,-0.318 ± 0.15
24,E42T,0.014 ± 0.13

row,Variant,abundance fitness
1,E42Y,-0.076 ± 0.19
2,E42P,-0.184 ± 0.13
3,E42R,-0.085 ± 0.11
4,E42F,-0.413 ± 0.18
5,E42A,-0.113 ± 0.11
6,E42K,-0.563 ± 0.18
7,E42M,0.138 ± 0.16
8,E42L,-0.05 ± 0.1
9,E42G,-0.117 ± 0.1
10,E42V,0.068 ± 0.11
11,E42S,-0.241 ± 0.11
12,E42I,-0.019 ± 0.22
13,E36T,-0.042 ± 0.15
14,E36P,0.087 ± 0.13
15,E36H,-0.18 ± 0.14
16,E36I,-0.057 ± 0.24
17,E36A,-0.033 ± 0.12
18,E36N,-0.166 ± 0.19
19,E36F,-0.237 ± 0.19
20,E36K,0.093 ± 0.17
21,E36C,-0.067 ± 0.17
22,E36V,0.205 ± 0.12
23,E36G,0.014 ± 0.11
